The record followed here is publication PMC2613632 (The Journal of Biological Chemistry, 2009).

This series deals with the molecule itself. The series is described as follows: native MS.

B1: MacB, His-tagged, purified (natural protein, E. coli, UniProt P75831 1-648, looked up)
chain: MTPLLELKDIRRSYPAGDEQVEVLKGISLDIYAGEMVAIVGASGSGKSTLMNILGCLDKATSGTYRVAGQDVATLDADALAQLRREHFGFIFQRYHLLSHLTAEQNVEVPAVYAGLERKQRLLRAQELLQRLGLEDRTEYYPAQLSGGQQQRVSIARALMNGGQVILADEPTGALDSHSGEEVMAILHQLRDRGHTVIIVTHDPQVAAQAERVIEIRDGEIVRNPPAIEKVNVTGGTEPVVNTVSGWRQFVSGFNEALTMAWRALAANKMRTLLTMLGIIIGIASVVSIVVVGDAAKQMVLADIRSIGTNTIDVYPGKDFGDDDPQYQQALKYDDLIAIQKQPWVASATPAVSQNLRLRYNNVDVAASANGVSGDYFNVYGMTFSEGNTFNQEQLNGRAQVVVLDSNTRRQLFPHKADVVGEVILVGNMPARVIGVAEEKQSMFGSSKVLRVWLPYSTMSGRVMGQSWLNSITVRVKEGFDSAEAEQQLTRLLSLRHGKKDFFTWNMDGVLKTVEKTTRTLQLFLTLVAVISLVVGGIGVMNIMLVSVTERTREIGIRMAVGARASDVLQQFLIEAVLVCLVGGALGITLSLLIAFTLQLFLPGWEIGFSPLALLLAFLCSTVTGILFGWLPARNAARLDPVDALARE
Consider B1, for which the “stoichiometry N” value came to 2.

The stoichiometry N is a count of units in the complex or per binding partner.
